The values below come from patent publication CN105384819A (UNIV CHINA PHARMA, dated 2016).

For the test, the target named is T1, rhDLL4(重组人DLL4) (human, UniProt Q9NR61 27-524, limits assumed).
T1 construct: Immobilised on a CM5 chip for SPR and coated on 96-well plates for the MTT assay; also called 人DLL4抗原; DLL4抗原
As to the kind of experiment: SPR, Biacore X100, rhDLL4 immobilised on CM5 chip, antibody injected at 0.098-12.5 nM. Background: In SPR one partner is held on a chip, and binding of the other changes the refractive index at the surface.

T1 sequence (Q9NR61 27-524 limits assumed): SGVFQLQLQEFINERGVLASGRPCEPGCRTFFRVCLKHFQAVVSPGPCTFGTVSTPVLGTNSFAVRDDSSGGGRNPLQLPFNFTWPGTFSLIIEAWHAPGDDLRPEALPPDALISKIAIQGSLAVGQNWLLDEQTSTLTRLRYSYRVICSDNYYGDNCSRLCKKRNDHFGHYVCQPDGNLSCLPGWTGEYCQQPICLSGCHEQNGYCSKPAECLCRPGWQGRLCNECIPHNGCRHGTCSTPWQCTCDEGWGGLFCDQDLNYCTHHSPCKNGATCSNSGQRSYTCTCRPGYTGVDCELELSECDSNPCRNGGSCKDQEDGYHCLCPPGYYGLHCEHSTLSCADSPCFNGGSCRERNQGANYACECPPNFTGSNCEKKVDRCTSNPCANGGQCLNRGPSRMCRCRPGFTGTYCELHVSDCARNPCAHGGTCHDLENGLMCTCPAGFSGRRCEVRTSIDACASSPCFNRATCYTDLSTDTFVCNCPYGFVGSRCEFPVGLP

B1: 抗人DLL4人源化抗体H3L2 (antibody, human IgG1, lambda, V domains shown)
VH: QVQLVQSGAEVKKPGSSVKVSCKASGYTFSGYWMQWIKQAPGQGLEWIGAIYPGDGDTRYTQKFKGRATLTADKSTSTAYMELSSLRSEDTAVYYCAGGNFFFDYWGQGTLVTVSS
VL: EIVITQSPDFQSVTPKEKVTITCSVSSSISSSYLHWYQQKPDQSPKPWIYGTSNLASGVPSRFSGSGSGTDYTLTINSLEAEDAATYYCQQWSSSPLTFGQGTKLEIKV
notes: also called 抗DLL4人源化抗体
B1 gave a Kd of 2.26 pM.

As usually defined, the Kd is the free concentration of one partner at which half of the binding sites on the other are occupied at equilibrium, for simple one-to-one binding.
